B1: LINE1-full (parent)
chain: UACGUAGGUGGUUUUCCCCUGAUAGUGCUAAGGGGGCCUGGAAGUUUGGACUGGGCAGAGCUCAACACAGCGUGGCAAAGUGGCUGUGGCUAGACUGCCUCUCUGGAUUCCUCGUCACUCAGCAGGGCAUCUCUGAGAGAAAUGCC

Variants of: B1
Test: self-cleavage, relative activity (ratio to wild type); higher = more cleavage; in vitro, sequencing; the parent is a self-cleaving ribozyme

First: U81A U115C
Second: A30G A64C
The self-cleavage of the first is higher: 2.44 for the first, 0.31 for the second.

Going from G32A A129U to U14A G114A, the self-cleavage falls from 1.15 to 0.83.

Going from U119G A141G to A43U U91C, the self-cleavage falls from 1.57 to 0.68.

First: U15C G137U
Second: U23C U29C
The self-cleavage of the first is higher: 1.26 for the first, 1.06 for the second.

First: U15C U115A
Second: A57G U91A
The self-cleavage of the first is higher: 1.59 for the first, 0.34 for the second.

Compared with A43G A67U, A57U A65G is higher in self-cleavage: 0.06 for the first, 0.07 for the second.

Going from A77G U112C to C63U U96A, the self-cleavage falls from 2.18 to 0.05.

First: A69U A79C
Second: G36A G40U
The self-cleavage of the first is lower: 0.12 for the first, 0.66 for the second.

First: G35U A141G
Second: A136G A138G
The self-cleavage of the first is lower: 1.09 for the first, 1.6 for the second.

First: U45C U52C
Second: G70A C128A
The self-cleavage of the first is higher: 0.95 for the first, 0.04 for the second.

First: A59G C103U
Second: U52G A79G
The self-cleavage of the first is lower: 0.06 for the first, 1.31 for the second.

Going from C51U G137U to C56U A117C, the self-cleavage falls from 1.25 to 0.5.

First: A92C A141G
Second: U39C U87A
The self-cleavage of the first is higher: 0.26 for the first, 0.06 for the second.

Going from C3U U26G to A59G U102A, the self-cleavage falls from 0.87 to 0.

Compared with C16U A79G, U5C A57G is higher in self-cleavage: 0.9 for the first, 0.93 for the second.

First: U26C C95A
Second: G32A G83U
The self-cleavage of the first is lower: 0.1 for the first, 0.83 for the second.

Going from U14A A138G to A42U A43U, the self-cleavage falls from 1.15 to 0.84.

Compared with A57G A136U, U102C C145U is higher in self-cleavage: 0.95 for the first, 1.93 for the second.

Going from A79U A136U to G89A U119C, the self-cleavage falls from 2.6 to 0.06.

First: A6G U9C
Second: G25U C123A
The self-cleavage of the first is higher: 1.16 for the first, 0.95 for the second.

First: C17U A94U
Second: C19U U115C
The self-cleavage of the first is lower: 0.17 for the first, 1.79 for the second.

Compared with A22U U134A, G40U U130C is higher in self-cleavage: 1.15 for the first, 1.32 for the second.

Compared with A79G A138U, G35A A107U is higher in self-cleavage: 0.85 for the first, 1.41 for the second.

Going from A67G U132C to A92U G114U, the self-cleavage rises from 0.62 to 0.67.

First: U87A A136U
Second: A6U C66U
The self-cleavage of the first is higher: 0.1 for the first, 0.09 for the second.

First: U112A A138G
Second: U13A C98G
The self-cleavage of the first is higher: 1.57 for the first, 0.09 for the second.

Going from U45G A67G to U73A U109A, the self-cleavage rises from 0.45 to 0.92.

Going from A31G to U102C G127A, the self-cleavage rises from 1.11 to 1.7.

Compared with C37U U85A, A42C A142G is higher in self-cleavage: 0.05 for the first, 1.23 for the second.

First: A69C U104C
Second: A124G U132C
The self-cleavage of the first is lower: 0.22 for the first, 0.82 for the second.

A124G U132A and A31U U52C are the same in self-cleavage: 0.87 for the first, 0.87 for the second.

Compared with A59U, U73A A79G is higher in self-cleavage: 0.8 for the first, 1.2 for the second.

First: G55A A138G
Second: C51U U52C
The self-cleavage of the first is lower: 0.51 for the first, 0.99 for the second.

Going from U87G U115C to A117G U134A, the self-cleavage rises from 0.03 to 1.37.

Compared with G27A G55A, U23C A138U is higher in self-cleavage: 0.21 for the first, 1.84 for the second.

Going from U45C A129U to G82A U96A, the self-cleavage falls from 1.03 to 0.05.

Compared with C68U U87C, A57G G126A is higher in self-cleavage: 0.02 for the first, 1.19 for the second.

First: G60A U96C
Second: U62C A138G
The self-cleavage of the first is lower: 0.01 for the first, 0.06 for the second.

First: U47G A140U
Second: G35A G83C
The self-cleavage of the first is higher: 0.9 for the first, 0.71 for the second.

Compared with C28A C116U, C98U A138G is lower in self-cleavage: 1.34 for the first, 1.15 for the second.

First: A22G U108C
Second: U102C C123U
The self-cleavage of the first is lower: 1.16 for the first, 1.21 for the second.

First: C16U A142G
Second: U12C G54A
The self-cleavage of the first is higher: 0.96 for the first, 0.62 for the second.

Compared with G44A U47C, U9C U45C is lower in self-cleavage: 1.51 for the first, 1.27 for the second.

Going from G60A U119A to A64C U119C, the self-cleavage rises from 0.11 to 0.35.

Compared with U14C U112A, A121U A141G is higher in self-cleavage: 1.17 for the first, 1.24 for the second.

Compared with U115C C131A, C18U A129U is higher in self-cleavage: 0.47 for the first, 0.56 for the second.

Compared with G21A G137A, U12G U96A is lower in self-cleavage: 1.21 for the first, 0.21 for the second.

First: C51U U134C
Second: U81A A138G
The self-cleavage of the first is lower: 1.74 for the first, 2.16 for the second.

Going from G114A A121G to A67G U109C, the self-cleavage falls from 1.32 to 0.16.

Compared with A92G U115A, U62A U112A is lower in self-cleavage: 0.12 for the first, 0.05 for the second.

Going from U14A U143C to G88A U119A, the self-cleavage falls from 1 to 0.06.

Going from U46C A67U to U87C C146U, the self-cleavage rises from 0.12 to 0.34.

First: A136U U143A
Second: G21U U47C
The self-cleavage of the first is higher: 1.41 for the first, 0.72 for the second.

First: A42G U109C
Second: A69G U112G
The self-cleavage of the first is higher: 1.24 for the first, 1.15 for the second.

Going from U14C G83A to G72U A77G, the self-cleavage rises from 1.07 to 2.19.

First: G21A U100C
Second: A59G A117C
The self-cleavage of the first is higher: 1.72 for the first, 0.2 for the second.

Compared with C131U A138U, A78G U115A is lower in self-cleavage: 1.27 for the first, 1.12 for the second.

First: U9C A67U
Second: U5A A50G
The self-cleavage of the first is lower: 0.26 for the first, 0.78 for the second.

Going from A22C U102C to A50G U134A, the self-cleavage falls from 1.55 to 0.68.

Going from U20A A136G to U62A U81G, the self-cleavage falls from 0.93 to 0.02.

Going from G53U G60U to U5A U15C, the self-cleavage rises from 0.03 to 0.94.

Going from A24U U47A to A65G C84U, the self-cleavage falls from 0.99 to 0.06.

First: G7A C56U
Second: A43U A138U
The self-cleavage of the first is lower: 0.17 for the first, 1.14 for the second.

First: U39C G106U
Second: U29A A117U
The self-cleavage of the first is lower: 0.4 for the first, 1.06 for the second.

First: G125C
Second: A22U U45A
The self-cleavage of the first is higher: 1.59 for the first, 0.83 for the second.

First: U29G A124G
Second: U23C A140U
The self-cleavage of the first is lower: 0.44 for the first, 1.29 for the second.

First: G88U A140G
Second: U12G C84U
The self-cleavage of the first is lower: 0.04 for the first, 0.2 for the second.

First: G7U A65G
Second: U85G G106A
The self-cleavage of the first is lower: 0.13 for the first, 0.29 for the second.

Going from C37G U132A to U23A G54A, the self-cleavage falls from 1.23 to 0.96.

First: U26C A57G
Second: U109C U130C
The self-cleavage of the first is lower: 1.14 for the first, 1.49 for the second.

Going from A57U U85A to U26A U134C, the self-cleavage rises from 0.05 to 0.9.

Going from G122A U130A to U5C A92G, the self-cleavage falls from 2.13 to 0.

First: U62C U130A
Second: G88C A141G
The self-cleavage of the first is lower: 0.07 for the first, 0.14 for the second.

Going from U85A A107U to U39C G41A, the self-cleavage rises from 0.08 to 1.41.

Going from A69U U132C to U20C U143C, the self-cleavage rises from 0.07 to 1.29.

First: C3U U73A
Second: G70A A140G
The self-cleavage of the first is higher: 0.91 for the first, 0.06 for the second.

First: C19U U112C
Second: A94G G127U
The self-cleavage of the first is higher: 1.13 for the first, 0.09 for the second.

Compared with U45C C84U, A42G A65G is higher in self-cleavage: 0.04 for the first, 0.14 for the second.

First: U15C U119C
Second: U1A A141G
The self-cleavage of the first is higher: 1.75 for the first, 1.43 for the second.

Going from A65U A69C to U46C G126A, the self-cleavage rises from 0.02 to 0.59.

First: U5A A138G
Second: U81C A140G
The self-cleavage of the first is lower: 0.75 for the first, 1.07 for the second.

Going from G7A U100C to U39C A117C, the self-cleavage falls from 2.45 to 1.84.

Compared with A30C G41U, U47C C128U is lower in self-cleavage: 1.52 for the first, 1.42 for the second.

Variant U46A U96C has a self-cleavage of 0.19.

Source: the RNAGym collection of RNA variant scans (doi:10.7554/elife.90254)
